Assay results: the supplement of paper PMC9732359
± gives the uncertainty stated by the source.

Experiment: protein stability index of a GFP-peptide fusion (yeast GPS) (PSI 1-4); higher = more stable; sorted into four equal gates, so the index is relative within each strain
Summary of the method: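 Peptides tiling yeast proteins in 17-residue segments were fused downstream of GFP, with Cherry expressed from the same plasmid. As a pooled library in yeast, mid-log cultures grown in leucine-free medium were sorted into four equal gates by GFP/Cherry fluorescence ratio. Gate plasmids were PCR-amplified and Illumina-sequenced, and barcodes linked reads to strains. Each peptide received a protein stability index equal to the sum of each gate's read frequency times its gate number.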

Sequence | protein stability index (doa10∆) | protein stability index (pdr5∆) | protein stability index (san1∆) | protein stability index (ubr1∆)
PRYTYHTIFSDVCKTRF [YML031W/NDC1] | 2.77 ± 0.055 | 3 ± 0.051 | 2.62 ± 0.035 | 2.82 ± 0.055
LVSSASQQLLEILVTEL [RPN2] | 1.93 ± 0.059 | 2.27 ± 0.058 | 2.16 ± 0.092 | 1.8 ± 0.051
LCLEKLMCLSSKYCEKS [YCS4] | 1.55 ± 0.051 | 2.34 ± 0.087 | 2.27 ± 0.18 | 1.92 ± 0.059
IIVPDLIELKSDLLVAP [YML103C/NUP188] | 1.65 ± 0.052 | 1.8 ± 0.056 | 1.95 ± 0.094 | 1.69 ± 0.059
VLMETKNTQSPQTPLVE [SNU114] | 2.95 ± 0.16 | 2.93 ± 0.12 | 2.67 ± 0.087 | 2.96 ± 0.11
RKLGLLGDKEDEKQSAK [MTW1] | 3.37 ± 0.083 | 3.41 ± 0.09 | 2.94 ± 0.1 | 3.28 ± 0.067
SFHVQKKTCSSCGYPSA [RPL37B] | 1.86 ± 0.08 | 2.18 ± 0.076 | 1.86 ± 0.12 | 2.19 ± 0.059
YQMQSNYESVFTYNKFL [YIL149C/MLP2] | 1.29 ± 0.043 | 1.23 ± 0.028 | 1.55 ± 0.14 | 1.5 ± 0.048
PLLPIVEELMKKRRGSR [SNU114] | 2.4 ± 0.11 | 2.79 ± 0.12 | 2.87 ± 0.074 | 2.83 ± 0.13
CDGDTVWDKFAVNLLNC [SSN2] | 3.29 ± 0.1 | 3.3 ± 0.098 | 3.14 ± 0.07 | 3.11 ± 0.1
DTVSWFKQKYDADVLDK [RPL11A] | 2.06 ± 0.044 | 1.74 ± 0.044 | 1.64 ± 0.077 | 1.97 ± 0.039
KVEYKIVHDDPASDDIL [ITC1] | 3.05 ± 0.087 | 3.09 ± 0.086 | 3.05 ± 0.17 | 3.21 ± 0.091
VPVALKGQGPFTLTYDI [YMR129W/POM152] | 2.58 ± 0.096 | 2.95 ± 0.11 | 2.83 ± 0.069 | 2.8 ± 0.061
RIQNRVKLGLNSKMPTR [PRP8] | 2.48 ± 0.16 | 2.92 ± 0.1 | 2.74 ± 0.13 | 2.91 ± 0.13
ERKEQEEKEKEQSKEVG [BRN1] | 3.48 ± 0.21 | – | 3.49 ± 0.11 | 3.45 ± 0.14
TQLDDLQHELMISIIKL [YML103C/NUP188] | – | 2.29 ± 0.1 | 2.19 ± 0.28 | 2.51 ± 0.093
HVEKERASTELSQSRIK [YIL149C/MLP2] | 3.01 ± 0.089 | 2.93 ± 0.066 | 3.12 ± 0.095 | 3.1 ± 0.074
NLSSNVNFTEIGGLIPQ [YCS4] | 2.77 ± 0.071 | 2.46 ± 0.073 | 2.49 ± 0.08 | 2.47 ± 0.059
KDLFELERYYKEQADIY [ARP7] | 3.11 ± 0.09 | 3.34 ± 0.083 | 3.46 ± 0.12 | 3.41 ± 0.067
EVLQGLLQGGAKVVVTT [FAS2] | 3.22 ± 0.092 | 2.91 ± 0.076 | 2.29 ± 0.076 | 1.61 ± 0.088
KILEQFEYVLYPSKTLK [FAS2] | 3.01 ± 0.078 | 2.93 ± 0.069 | 2.97 ± 0.077 | 3.15 ± 0.064
ATNANATTDQEGDIHLE [PRE10] | 3.35 ± 0.23 | 3.39 ± 0.14 | 3.33 ± 0.036 | 3.11 ± 0.12
AGLTRSDRSLSEDLFAD [BRR2] | 3.04 ± 0.26 | – | 3.56 ± 0.2 | –
DFDGDEMNLHVPQSEET [RPO21] | 3.04 ± 0.083 | 3.12 ± 0.063 | 2.98 ± 0.045 | 3.23 ± 0.074
MQPFDSGHDDLVHDVVY [YGL100W/SEH1] | 3.23 ± 0.1 | 3.43 ± 0.11 | 3.13 ± 0.084 | 3.26 ± 0.093
SYFLKLLGNCYSLRLIN [SRB8] | 2.81 ± 0.065 | 2.75 ± 0.06 | 2.48 ± 0.061 | 2.96 ± 0.069
